Laboratory results reported in patent US9175313B2, “Three-dimensional structure of isoprene synthase and its use thereof for generating variants” (Danisco US Inc., priority 2009, dated 2015).

B1: PC: P. alba MEA L494P T536C (+) TEV; pDW113, SEQ ID NO: 93 (protein)
chain: MEARRSANYEPNSWDYDYLLSSDTDESIEVYKDKAKKLEAEVRREINNEKAEFLTLLELIDNVQRLGLGYRFESDIRGALDRFVSSGGFDAVTKTSLHGTALSFRLLRQHGFEVSQEAFSGFKDQNGNFLENLKEDIKAILSLYEASFLALEGENILDEAKVFAISHLKELSEEKIGKELAEQVNHALELPLHRRTQRLEAVWSIEAYRKKEDANQVLLELAILDYNMIQSVYQRDLRETSRWWRRVGLATKLHFARDRLIESFYWAVGVAFEPQYSDCRNSVAKMFSFVTIIDDIYDVYGTLDELELFTDAVERWDVNAINDLPDYMKLCFLALYNTINEIAYDNLKDKGENILPYLTKAWADLCNAFLQEAKWLYNKSTPTFDDYFGNAWKSSSGPLQLVFAYFAVVQNIKKEEIENLQKYHDTISRPSHIFRLCNDLASASAEIARGETANSVSCYMRTKGISEELATESVMNLIDETWKKMNKEKLGGSPFAKPFVETAINLARQSHCTYHNGDAHTSPDELTRKRVLSVICEPILPFERENLYFQGLEHHHHHH
modifications: TEV site
B2: NS: P. alba MEA A453N G491S (+) TEV; pDW103, SEQ ID NO: 73 (protein)
chain: MEARRSANYEPNSWDYDYLLSSDTDESIEVYKDKAKKLEAEVRREINNEKAEFLTLLELIDNVQRLGLGYRFESDIRGALDRFVSSGGFDAVTKTSLHGTALSFRLLRQHGFEVSQEAFSGFKDQNGNFLENLKEDIKAILSLYEASFLALEGENILDEAKVFAISHLKELSEEKIGKELAEQVNHALELPLHRRTQRLEAVWSIEAYRKKEDANQVLLELAILDYNMIQSVYQRDLRETSRWWRRVGLATKLHFARDRLIESFYWAVGVAFEPQYSDCRNSVAKMFSFVTIIDDIYDVYGTLDELELFTDAVERWDVNAINDLPDYMKLCFLALYNTINEIAYDNLKDKGENILPYLTKAWADLCNAFLQEAKWLYNKSTPTFDDYFGNAWKSSSGPLQLVFAYFAVVQNIKKEEIENLQKYHDTISRPSHIFRLCNDLASASAEIARGETNNSVSCYMRTKGISEELATESVMNLIDETWKKMNKEKLSGSLFAKPFVETAINLARQSHCTYHNGDAHTSPDELTRKRVLSVITEPILPFERENLYFQGLEHHHHHH
modifications: TEV site
B3: NC: P. alba MEA A453N T536C (+) TEV; pDW105, SEQ ID NO: 77 (protein)
chain: MEARRSANYEPNSWDYDYLLSSDTDESIEVYKDKAKKLEAEVRREINNEKAEFLTLLELIDNVQRLGLGYRFESDIRGALDRFVSSGGFDAVTKTSLHGTALSFRLLRQHGFEVSQEAFSGFKDQNGNFLENLKEDIKAILSLYEASFLALEGENILDEAKVFAISHLKELSEEKIGKELAEQVNHALELPLHRRTQRLEAVWSIEAYRKKEDANQVLLELAILDYNMIQSVYQRDLRETSRWWRRVGLATKLHFARDRLIESFYWAVGVAFEPQYSDCRNSVAKMFSFVTIIDDIYDVYGTLDELELFTDAVERWDVNAINDLPDYMKLCFLALYNTINEIAYDNLKDKGENILPYLTKAWADLCNAFLQEAKWLYNKSTPTFDDYFGNAWKSSSGPLQLVFAYFAVVQNIKKEEIENLQKYHDTISRPSHIFRLCNDLASASAEIARGETNNSVSCYMRTKGISEELATESVMNLIDETWKKMNKEKLGGSLFAKPFVETAINLARQSHCTYHNGDAHTSPDELTRKRVLSVICEPILPFERENLYFQGLEHHHHHH
modifications: TEV site
B4: G491S: P. alba IspS variant G491S; pDW100, strain DW398, SEQ ID NO: 67 (protein)
chain: MEARRSANYEPNSWDYDYLLSSDTDESIEVYKDKAKKLEAEVRREINNEKAEFLTLLELIDNVQRLGLGYRFESDIRGALDRFVSSGGFDAVTKTSLHGTALSFRLLRQHGFEVSQEAFSGFKDQNGNFLENLKEDIKAILSLYEASFLALEGENILDEAKVFAISHLKELSEEKIGKELAEQVNHALELPLHRRTQRLEAVWSIEAYRKKEDANQVLLELAILDYNMIQSVYQRDLRETSRWWRRVGLATKLHFARDRLIESFYWAVGVAFEPQYSDCRNSVAKMFSFVTIIDDIYDVYGTLDELELFTDAVERWDVNAINDLPDYMKLCFLALYNTINEIAYDNLKDKGENILPYLTKAWADLCNAFLQEAKWLYNKSTPTFDDYFGNAWKSSSGPLQLVFAYFAVVQNIKKEEIENLQKYHDTISRPSHIFRLCNDLASASAEIARGETANSVSCYMRTKGISEELATESVMNLIDETWKKMNKEKLSGSLFAKPFVETAINLARQSHCTYHNGDAHTSPDELTRKRVLSVITEPILPFERENLYFQGLEHHHHHH
B5: SC: P. alba MEA G491S T536C (+) TEV; pDW111, SEQ ID NO: 89 (protein)
chain: MEARRSANYEPNSWDYDYLLSSDTDESIEVYKDKAKKLEAEVRREINNEKAEFLTLLELIDNVQRLGLGYRFESDIRGALDRFVSSGGFDAVTKTSLHGTALSFRLLRQHGFEVSQEAFSGFKDQNGNFLENLKEDIKAILSLYEASFLALEGENILDEAKVFAISHLKELSEEKIGKELAEQVNHALELPLHRRTQRLEAVWSIEAYRKKEDANQVLLELAILDYNMIQSVYQRDLRETSRWWRRVGLATKLHFARDRLIESFYWAVGVAFEPQYSDCRNSVAKMFSFVTIIDDIYDVYGTLDELELFTDAVERWDVNAINDLPDYMKLCFLALYNTINEIAYDNLKDKGENILPYLTKAWADLCNAFLQEAKWLYNKSTPTFDDYFGNAWKSSSGPLQLVFAYFAVVQNIKKEEIENLQKYHDTISRPSHIFRLCNDLASASAEIARGETANSVSCYMRTKGISEELATESVMNLIDETWKKMNKEKLSGSLFAKPFVETAINLARQSHCTYHNGDAHTSPDELTRKRVLSVICEPILPFERENLYFQGLEHHHHHH
modifications: TEV site
B6: NP: P. alba MEA A453N L494P (+) TEV; pDW104, SEQ ID NO: 75 (protein)
chain: MEARRSANYEPNSWDYDYLLSSDTDESIEVYKDKAKKLEAEVRREINNEKAEFLTLLELIDNVQRLGLGYRFESDIRGALDRFVSSGGFDAVTKTSLHGTALSFRLLRQHGFEVSQEAFSGFKDQNGNFLENLKEDIKAILSLYEASFLALEGENILDEAKVFAISHLKELSEEKIGKELAEQVNHALELPLHRRTQRLEAVWSIEAYRKKEDANQVLLELAILDYNMIQSVYQRDLRETSRWWRRVGLATKLHFARDRLIESFYWAVGVAFEPQYSDCRNSVAKMFSFVTIIDDIYDVYGTLDELELFTDAVERWDVNAINDLPDYMKLCFLALYNTINEIAYDNLKDKGENILPYLTKAWADLCNAFLQEAKWLYNKSTPTFDDYFGNAWKSSSGPLQLVFAYFAVVQNIKKEEIENLQKYHDTISRPSHIFRLCNDLASASAEIARGETNNSVSCYMRTKGISEELATESVMNLIDETWKKMNKEKLGGSPFAKPFVETAINLARQSHCTYHNGDAHTSPDELTRKRVLSVITEPILPFERENLYFQGLEHHHHHH
modifications: TEV site
B7: NPC: P. alba MEA A453N L494P T536C (+) TEV; pDW108, SEQ ID NO: 83 (protein)
chain: MEARRSANYEPNSWDYDYLLSSDTDESIEVYKDKAKKLEAEVRREINNEKAEFLTLLELIDNVQRLGLGYRFESDIRGALDRFVSSGGFDAVTKTSLHGTALSFRLLRQHGFEVSQEAFSGFKDQNGNFLENLKEDIKAILSLYEASFLALEGENILDEAKVFAISHLKELSEEKIGKELAEQVNHALELPLHRRTQRLEAVWSIEAYRKKEDANQVLLELAILDYNMIQSVYQRDLRETSRWWRRVGLATKLHFARDRLIESFYWAVGVAFEPQYSDCRNSVAKMFSFVTIIDDIYDVYGTLDELELFTDAVERWDVNAINDLPDYMKLCFLALYNTINEIAYDNLKDKGENILPYLTKAWADLCNAFLQEAKWLYNKSTPTFDDYFGNAWKSSSGPLQLVFAYFAVVQNIKKEEIENLQKYHDTISRPSHIFRLCNDLASASAEIARGETNNSVSCYMRTKGISEELATESVMNLIDETWKKMNKEKLGGSPFAKPFVETAINLARQSHCTYHNGDAHTSPDELTRKRVLSVICEPILPFERENLYFQGLEHHHHHH
modifications: TEV site
B8: NSP: P. alba MEA A453N G491S L494P (+) TEV; pDW106, SEQ ID NO: 79 (protein)
chain: MEARRSANYEPNSWDYDYLLSSDTDESIEVYKDKAKKLEAEVRREINNEKAEFLTLLELIDNVQRLGLGYRFESDIRGALDRFVSSGGFDAVTKTSLHGTALSFRLLRQHGFEVSQEAFSGFKDQNGNFLENLKEDIKAILSLYEASFLALEGENILDEAKVFAISHLKELSEEKIGKELAEQVNHALELPLHRRTQRLEAVWSIEAYRKKEDANQVLLELAILDYNMIQSVYQRDLRETSRWWRRVGLATKLHFARDRLIESFYWAVGVAFEPQYSDCRNSVAKMFSFVTIIDDIYDVYGTLDELELFTDAVERWDVNAINDLPDYMKLCFLALYNTINEIAYDNLKDKGENILPYLTKAWADLCNAFLQEAKWLYNKSTPTFDDYFGNAWKSSSGPLQLVFAYFAVVQNIKKEEIENLQKYHDTISRPSHIFRLCNDLASASAEIARGETNNSVSCYMRTKGISEELATESVMNLIDETWKKMNKEKLSGSPFAKPFVETAINLARQSHCTYHNGDAHTSPDELTRKRVLSVITEPILPFERENLYFQGLEHHHHHH
modifications: TEV site

Assay: Specific activity measurement of purified isoprene synthase variants (4 mM DMAPP, 30 C, GC-MS headspace)
Assay type: biochemical
Conditions: 50 mM NaCl, 50 mM Tris pH = 8, 30° C.; for Variant S.A./WT S.A.: ratio to WT
Description: 1. Initial Purification—Resuspend the pellet in 3 ml of fresh lysis buffer. Break cells by passing them through the French Press using the small cylinder. Centrifuge samples for 1 hour at 30,000×G and collect the supernatant. Retain pellet in order to test for presence of insoluble protein. Pre equilibrate 0.5 mL Ni Sepharose 6 Fast Flow resin (Amersham) in a 20 ml disposable column with 10 mL of Ni wash buffer. Add protein to column and shake for 60 min at 4 C to bind protein. Elute protein with 2.5 mL Ni elution buffer.
2. Buffer Exchange—Equilibrate a PD-10 column (GE Healthcare) with 25 mL of PD-10 buffer. Load protein on to column and elute with 3.5 mL of PD-10 buffer.
10 uL of purified enzyme was incubated with 4 mM DMAPP, 50 mM MgCl2 in a buffer containing 50 mM Tris and 50 mM NaCl (pH=8) to a final volume of 100 uL for 15 min. at 30 C in gas tight 2 mL vials. Reactions were terminated with the addition of 100 uL of […] EDTA, pH=8. Samples were analyzed by GC-MS to determine the concentration of isoprene in the headspace of the vials. All specific activity measurements were performed in triplicate.
Protein concentration was determined by measuring the absorbance of each protein solution at 280 nm on a Helwlett Pachard 8453 UV-Vis spectrophotometer and converting the absorbance to protein concentration using the extinction coefficient as determined on the Expasy website (Gasteiger E., Hoogland C., Gattiker A., Duvaud S., Wilkins M. R., Appel R. D., Bairoch A.; Protein Identification and Analysis Tools on the ExPASy Server; (In) John M. Walker (ed): The Proteomics Protocols Handbook, Humana Press (2005). pp. 571-607). The protein concentrations of isoprene synthase variants assayed for KM and kcat determination were verified by comparative gel electrophoresis of a dilution series of each protein (FIG. 61).

Row | Molecule | S.A. | Variant S.A./WT S.A.
1 | B1 | 490 ± 20 nmol/mg/min | 1.0
2 | B2 | 480 ± 40 nmol/mg/min | 1.0
3 | B3 | 420 ± 30 nmol/mg/min | 0.9
4 | B4 | 480 ± 20 nmol/mg/min | 1.0
5 | B5 | 440 ± 20 nmol/mg/min | 0.9
6 | B6 | 490 ± 20 nmol/mg/min | 1.0
7 | B7 | 440 ± 20 nmol/mg/min | 0.9
8 | B8 | 465 ± 2 nmol/mg/min | 1.0
